Blank lines part the entries; values can stand above or below the binder they belong to.
Tests used:
[1] = biological target: T1, biotinylated human TROP2 antigen (human, UniProt P09758 27-274, C-terminal Avi tag sequence biotinylated); experiment: ELISA, anti-FLAG detection, with and without MMP1
T1 construct: extracellular domain
T1 sequence (looked up): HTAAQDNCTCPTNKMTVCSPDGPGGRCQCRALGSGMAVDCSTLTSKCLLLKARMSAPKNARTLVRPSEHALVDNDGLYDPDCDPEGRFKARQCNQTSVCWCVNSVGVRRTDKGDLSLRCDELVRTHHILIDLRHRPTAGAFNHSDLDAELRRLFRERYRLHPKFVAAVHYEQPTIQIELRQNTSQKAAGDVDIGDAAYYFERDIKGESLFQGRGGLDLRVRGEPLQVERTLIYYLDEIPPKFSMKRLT
Experimental: (§1) The resultant was then added to the plate comprising the human TROP2 antigen immobilized thereon at 50 μl/well. The bound scFv was detected using the HRP-labeled anti-FLAG antibody (Sigma-Aldrich) diluted to 5,000-fold with ELISA buffer.
The antibody was adjusted to 1 μM with the use of MMP buffer, MMP1 was added to the final concentration of 1 μM or 0 μM, and the reaction was allowed to proceed at 37° C. for 15 minutes. Thereafter, the antibody with the concentration thereof being adjusted with ELISA buffer was added to the wells.

[2] = biological target: T1, biotinylated human TROP2 antigen; experiment: ELISA, immobilised biotinylated human TROP2 antigen, anti-FLAG-HRP detection; after MMP1 pre-treatment (mask linker cleaved)
Experimental: (§2) NeutrAvidin (Thermo Fisher Scientific) diluted to 1 μg/ml with PBS was added at 50 μl/well to a 96-well Maxi-sorp plate (Black, Nunc) and immobilized at 4° C. overnight. The plate was washed with PBS containing 0.05% (w/v) Tween-20 (BioRad) (ELISA buffer) and then blocked with Blocker Casein (Thermo Fisher Scientific). The plate was washed with ELISA buffer, the biotinylated human TROP2 antigen (Accession Number: P09758; the extracellular domain was purified by the method known to a person skilled in the art and the C-terminal Avi tag sequence was then biotinylated) diluted to 1 μg/ml with PBS was added at 50 μl/well, and the resultant was then agitated for 30 minutes at room temperature. […] The plate was washed with ELISA buffer, the SuperSignal Pico ELISA chemiluminescent substrate (Thermo Fisher Scientific) was added, and chemiluminescence 10 minutes thereafter was then assayed using a plate reader.
as §1

TROP2 on FaDu cells = biological target: T2, TROP2 on FaDu cells (human, UniProt P09758 27-323); experiment: cell-based or functional assay
T2 sequence (looked up): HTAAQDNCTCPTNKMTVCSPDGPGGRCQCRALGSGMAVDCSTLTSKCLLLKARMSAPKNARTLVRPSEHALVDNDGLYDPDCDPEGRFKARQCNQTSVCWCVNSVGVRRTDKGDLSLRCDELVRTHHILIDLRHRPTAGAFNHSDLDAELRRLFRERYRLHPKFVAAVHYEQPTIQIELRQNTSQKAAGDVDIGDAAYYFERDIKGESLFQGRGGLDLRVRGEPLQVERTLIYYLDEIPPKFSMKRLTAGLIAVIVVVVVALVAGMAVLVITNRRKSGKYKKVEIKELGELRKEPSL

[3] = biological target: T1, biotinylated human TROP2 antigen; experiment: ELISA, immobilised biotinylated human TROP2 antigen, chemiluminescence
Experimental: (§3) NeutrAvidin (Thermo Fisher Scientific) diluted to 1 μg/ml with PBS was added at 50 μl/well to a 96-well Maxi-sorp plate (Black, Nunc) and immobilized at 4° C. overnight. The plate was washed with PBS containing 0.05% (w/v) Tween-20 (BioRad) (ELISA buffer) and then blocked with Blocker Casein (Thermo Fisher Scientific). The plate was washed with ELISA buffer, the biotinylated human TROP2 antigen (Accession Number: P09758; the extracellular domain was purified by the method known to a person skilled in the art and the C-terminal Avi tag sequence was then biotinylated) diluted to 1 μg/ml with PBS was added at 50 μl/well, and the resultant was then agitated for 30 minutes at room temperature. […] The plate was washed with ELISA buffer, 50 μl of the horseradish peroxidase (HRP)-labeled anti-human IgG antibody (Jackson Immuno Research Laboratories) diluted to 2,500-fold with ELISA buffer was added, and the resultant was then agitated for 30 minutes at room temperature. The plate was washed with ELISA buffer, the SuperSignal Pico ELISA chemiluminescent substrate (Thermo Fisher Scientific) was added, and chemiluminescence 10 minutes thereafter was then assayed using a plate reader.

[4] = biological target: T1, biotinylated human TROP2 antigen; experiment: ELISA, immobilised biotinylated human TROP2 antigen, chemiluminescence; without MMP1
Experimental: as §3

[5] = biological target: T1, biotinylated human TROP2 antigen; experiment: ELISA, immobilised biotinylated human TROP2 antigen, chemiluminescence; after MMP1 pre-treatment
Experimental: as §3

[6] = biological target: T1, biotinylated human TROP2 antigen; experiment: ELISA pH 7.5 against pH 5.5
[7] = biological target: T1, biotinylated human TROP2 antigen; experiment: ELISA with and without MMP1
[8] = biological target: T1, biotinylated human TROP2 antigen; experiment: ELISA, immobilised biotinylated human TROP2 antigen, chemiluminescence; pH 5.5
[9] = biological target: T1, biotinylated human TROP2 antigen; experiment: ELISA, immobilised biotinylated human TROP2 antigen, chemiluminescence; pH 7.5
[10] = biological target: T1, biotinylated human TROP2 antigen; experiment: ELISA, immobilised biotinylated human TROP2 antigen, chemiluminescence; after MMP1 pre-treatment (mask linker cleaved)
[11] = biological target: T1, biotinylated human TROP2 antigen; experiment: ELISA, immobilised biotinylated human TROP2 antigen, chemiluminescence; without MMP1; remark: listed apart in the source
Experimental: as §3

[12] = biological target: T1, biotinylated human TROP2 antigen; experiment: ELISA, immobilised biotinylated human TROP2 antigen, chemiluminescence; after MMP1 pre-treatment (mask linker cleaved); remark: listed apart in the source
Experimental: as §3

[13] = biological target: T1, biotinylated human TROP2 antigen; experiment: ELISA, immobilised biotinylated human TROP2 antigen, chemiluminescence; pH 7.5; remark: listed apart in the source
Experimental: (§4) The plate was washed with PBS containing 0.05% (w/v) Tween-20 (BioRad) (ELISA buffer) and then blocked with Blocker Casein (Thermo Fisher Scientific). The plate was washed with ELISA buffer, the biotinylated human TROP2 antigen (Accession Number: P09758; the extracellular domain was purified by the method known to a person skilled in the art and the C-terminal Avi tag sequence was then biotinylated) diluted to 1 μg/ml with PBS was added at 50 μl/well, and the resultant was then agitated for 30 minutes at room temperature. […] The plate was washed with ELISA buffer, 50 μl of the horseradish peroxidase (HRP)-labeled anti-human IgG antibody (Jackson Immuno Research Laboratories) diluted to 2,500-fold with ELISA buffer was added, and the resultant was then agitated for 30 minutes at room temperature. The plate was washed with ELISA buffer, the SuperSignal Pico ELISA chemiluminescent substrate (Thermo Fisher Scientific) was added, and chemiluminescence 10 minutes thereafter was then assayed using a plate reader. […]

[14] = biological target: T1, biotinylated human TROP2 antigen; experiment: as above; remark: listed apart in the source
Experimental: as §4

[15] = biological target: T1, biotinylated human TROP2 antigen; experiment: ELISA, immobilised biotinylated human TROP2 antigen, chemiluminescence; pH 6.5
[16] = biological target: T1, biotinylated human TROP2 antigen; experiment: ELISA, immobilised biotinylated human TROP2 antigen, chemiluminescence; pH 7.5; remark: listed apart in the source
[17] = biological target: T1, biotinylated human TROP2 antigen; experiment: ELISA, immobilised biotinylated human TROP2 antigen, chemiluminescence; pH 5.5; remark: listed apart in the source
[18] = biological target: T1, biotinylated human TROP2 antigen; experiment: ELISA, immobilised biotinylated human TROP2 antigen, chemiluminescence; pH 7.5; remark: listed apart in the source
[19] = biological target: T1, biotinylated human TROP2 antigen; experiment: ELISA, immobilised biotinylated human TROP2 antigen, chemiluminescence; pH 5.5; remark: listed apart in the source
Experimental: as §4

[20] = biological target: T1, biotinylated human TROP2 antigen; experiment: ELISA, immobilised biotinylated human TROP2 antigen, chemiluminescence; pH 7.5; remark: listed apart in the source
Experimental: as §4

[21] = biological target: T1, biotinylated human TROP2 antigen; experiment: ELISA, immobilised biotinylated human TROP2 antigen, chemiluminescence; pH 5.5; remark: listed apart in the source
[22] = biological target: T1, biotinylated human TROP2 antigen; experiment: ELISA, immobilised biotinylated human TROP2 antigen, chemiluminescence; pH 7.5; remark: listed apart in the source
Experimental: as §4

[23] = biological target: T1, biotinylated human TROP2 antigen; experiment: ELISA, immobilised biotinylated human TROP2 antigen, anti-FLAG-HRP detection; without MMP1
Experimental: as §2, §1

[24] = biological target: T1, biotinylated human TROP2 antigen; experiment: ELISA, immobilised biotinylated human TROP2 antigen, anti-FLAG-HRP detection; after MMP1 pre-treatment (mask linker cleaved); remark: listed apart in the source
Experimental: as §2, §1

B1: MHT1001 (scFv)
scFv: AMGYLALKHPWPGLAENSGSGGGGSVLVPMAMMASGGSDVNSQVQLVQSGAEVKKPGASVKVSCKASGYTFTTAGMQWVRQAPGQGLEWMGWINTHSGVPKYAEDFKGRVTISADTSTSTAYLQLSSLKSEDTAVYYCARSGFGSSYWYFDVWGQGTLVTVSSGGGGSGGGGSGGGGSDIQMTQSPSSLSASVGDRVTITCKASQDVSTAVAWYQQKPGKAPKLLIYSASYRYTGVPSRFSGSGSGTDFTLTISSLQPEDFAVYYCQQHYITPLTFGQGTKLEIKRGAPSGDYKDDDDKGAAAHHHHHH
EC50 ratio of binding intensity (without MMP1 / with MMP1) [1]: 7.9
EC50 (read off the curve) [2]: ~8 nM

B2: MHT1808-PBD-ADC (antibody, human IgG1, kappa)
heavy: not shown
light: DIQMTQSPSSLSASVGDRVTITCKASQDVSTAVAWYQQKPGKAPKLLIYSASYRYTGVPSRFSGSGSGTDFTLTISSLQPEDFAVYYCQQHYITPLTFGQGTKLEIKRTVAAPSVFIFPPSDEQLKSGTASVVCLLNNFYPREAKVQWKVDNALQSGNSQESVTEQDSKDSTYSLSSTLTLSKADYEKHKVYACEVTHQGLSSPVTKSFNRGEC
modifications: N297 glycan remodelled to azide-bearing MSG1-type glycan and conjugated to Linker 2 (PBD drug linker); average number of drugs bound 1.9
in vitro growth inhibitory activity on FaDu cells, EC50 ratio (pH 7.4/pH 5.5) (TROP2 on FaDu cells): 10.7

B3: anti-TROP2 antibody HT1-11 (antibody)
heavy: not shown
light: B2 light
notes: Known antibody of WO 2015/098099; Full-length entries
EC50 (read off the curve) [3]: ~0.6 nM
EC50 (read off the curve) [4]: ~0.5 nM
EC50 (read off the curve) [5]: ~0.5 nM

B5: anti-TROP2 masked antibody MHT1805 (antibody)
heavy: not shown
light: B2 light
notes: His cluster linker; Full-length entries
EC50 ratio (neutral pH conditions/acidic pH conditions) [6]: 2.3

B6: MHT1221-PBD-ADC (antibody, human IgG1, kappa)
heavy: not shown
light: B2 light
modifications: N297 glycan remodelled to azide-bearing MSG1-type glycan and conjugated to Linker 2 (PBD drug linker); average number of drugs bound 1.9
in vitro growth inhibitory activity on FaDu cells, EC50 ratio (pH 7.4/pH 5.5) (TROP2 on FaDu cells): 1.9

B7: anti-TROP2 masked antibody MHT1007 (antibody)
heavy: not shown
light: B2 light
notes: IgG-type; MHT1001 mimotope peptide and MMP cleavable linker fused to the heavy chain; Full-length entries
EC50 ratio of binding intensity (without MMP1 / with MMP1) [7]: 104
EC50 (read off the curve) [11]: ~30 nM
EC50 (read off the curve) [12]: ~0.3 nM

B14: MHT1002 (scFv)
scFv: AMGYLALKHPWPGLAENSGSGGGGSVLVPMAMMASGGSDVNSDIQMTQSPSSLSASVGDRVTITCKASQDVSTAVAWYQQKPGKAPKLLIYSASYRYTGVPSRFSGSGSGTDFTLTISSLQPEDFAVYYCQQHYITPLTFGQGTKLEIKRGGGGSGGGGSGGGGSQVQLVQSGAEVKKPGASVKVSCKASGYTFTTAGMQWVRQAPGQGLEWMGWINTHSGVPKYAEDFKGRVTISADTSTSTAYLQLSSLKSEDTAVYYCARSGFGSSYWYFDVWGQGTLVTVSSGAPSGDYKDDDDKGAAAHHHHHH
notes: Mimotope peptide, MMP cleavable linker, HT1-11 scFv, FLAG tag, His tag
EC50 ratio of binding intensity (without MMP1 / with MMP1) [1]: 4.3
EC50 (read off the curve) [23]: ~10 nM
EC50 (read off the curve) [24]: ~3 nM

Second part, the binder after the results:

EC50 ratio (neutral pH conditions/acidic pH conditions) [6]: 28.1
EC50 ratio (without the addition of MMP1/with the addition of MMP1) [7]: 48.4
EC50 (read off the curve) [8]: ~1 nM
EC50 (read off the curve) [9]: ~30 nM
EC50 (read off the curve) [10]: ~0.6 nM
B4: anti-TROP2 masked antibody MHT1811 (antibody)
heavy: not shown
light: B2 light
notes: Full-length entries

EC50 ratio (neutral pH conditions/acidic pH conditions) [6]: 1.7
EC50 (read off the curve) [13]: ~50 nM
B8: anti-TROP2 masked antibody MHT1221 (antibody)
heavy: not shown
light: B2 light
notes: No His cluster; Full-length entries

EC50 ratio (neutral pH conditions/acidic pH conditions) [6]: 38.8
EC50 (read off the curve) [14]: ~200 nM
EC50 (read off the curve) [15]: ~50 nM
EC50 (read off the curve) [16]: ~200 nM
B9: anti-TROP2 masked antibody MHT1806 (antibody, human IgG1, kappa)
heavy: not shown
light: B2 light

EC50 ratio (neutral pH conditions/acidic pH conditions) [6]: 3.6
B10: anti-TROP2 masked antibody MHT1804 (antibody)
heavy: not shown
light: B2 light
notes: as for B5

EC50 ratio (neutral pH conditions/acidic pH conditions) [6]: 7.8
EC50 (read off the curve) [17]: ~7 nM
EC50 (read off the curve) [18]: ~60 nM
B11: anti-TROP2 masked antibody MHT1810 (antibody)
heavy: not shown
light: B2 light
notes: His at every other position in the linker; Full-length entries; also called HMT1810

EC50 ratio (neutral pH conditions/acidic pH conditions) [6]: 11.4
EC50 (read off the curve) [19]: ~5 nM
EC50 (read off the curve) [20]: ~60 nM
B12: anti-TROP2 masked antibody MHT1809 (antibody)
heavy: not shown
light: B2 light
notes: as for B5

EC50 ratio (neutral pH conditions/acidic pH conditions) [6]: 3.9
EC50 (read off the curve) [21]: ~30 nM
EC50 (read off the curve) [22]: ~100 nM
B13: anti-TROP2 masked antibody MHT1803 (antibody)
heavy: not shown
light: B2 light
notes: as for B5

Source: US20250170255A1 (Daiichi Sankyo, published 2025)
